Data published in US12065673B2, “Method for obtaining human brown/beige adipocytes” (ETABLISSEMENT FRANCAIS DU SANG, priority 2015, dated 2024).

Experiments:
Format in all cases: cell-based, human
standard ASCs = assay: Osteoblastic marker expression after BMP induction; settings: 50 ng/mL BMP for 3 days
[1] = system: adipogenic progenitor cells (pAdSCs); assay: Adipogenic differentiation after BMP induction (QRT-PCR adipocyte markers, Oil red O); settings: 50 ng/mL BMP for 3 days, recovered at day 10
Method: Total RNA was extracted from ASCs and purified by AllPrep DNA/RNA/Protein kit (Qiagen, Courtaboeuf, France) and dosed by nanodrop (Thermo Fischer, Courtaboeuf, France). RNA purity and integrity was checked using the Experion™ RNA Std Sens Reagents on the Experion automatisated system (Biorad). […] The reverse transcription (RT) was performed on 1 μg RNA by using high capacity cDNA reverse transcription kit (Applied Biosystem ™) and random hexamers in a final volume of 20 μL. The oligonucleotides for each target of interest, designed by using Primer Express software (PerkinElmer Life Sciences, Waltham, Mass.) were used (forward and reverse) and listed in table1. Quantitative PCR was performed on diluted cDNA (equivalent to 25 ng of starting purified RNA) using SSoFast EvaGreen Supermix (Biorad, Marnes-la-Coquette, France) with 500 nM of forward and reverse primers in a total volume of 20 μL on a CFX™ Real Time System (Biorad) following: 95° C., 3 minutes and 40 cycles of denaturation (95° C., 10 seconds) and primers hybridation and amplification (60° C., 30 seconds). […] Melt curves and appropriate No RT control were used to validate amplification specificity. Data were analysed on Bio-Rad CFX manager (threshold=0.2), exported to DataAssist Software v3.0 (Applied Biosystems). […] All real-time PCR reactions for the individual samples were performed in duplicate. […]

[2] = system: adipogenic progenitor cells (pAdSCs); assay: Brown/beige marker UCP1 by western blotting and immuno-fluorescence; settings: adipocytes from adipogenic progenitor cells; for UCP1 induction at protein level: western blotting and immuno-fluorescence
Method: Proteins which were extracted by AllPrep DNA/RNA/Protein kit (Qiagen, Courtaboeuf, France) were subjected to the Western blot analysis. Briefly, eluate from DNA and RNA retention columns was precipitated by APP buffer (v/v), centrifuged (10,000 g, 10 min), washed by ethanol 70%, and air dried. Pellets were dissolved in ALO buffer (Qiagen, Courtaboeuf, France), sonicated and protein content was determined by Bicinchoninic Acid method (Pierce). After denaturation (95° C., 5 min), proteins were separated by 12% Tris-glycine-SDS polyacrylamide gel electrophoresis, and subsequently transferred to polyvinylidene difluoride membrane (PVDF). The proteins were detected with Rabbit polyclonal Ab anti-human SOX2 (ab97959; Abcam, Cambridge, UK), anti-human OCT4 (ab19857, Abcam), anti-human NANOG (SC33759; SantaCruz, Dallas, Tex.), anti-human PRDM16, anti-human UCP1, or with Mouse monoclonal Ab anti-human PPARG, anti-βActin and anti-RUNX2 (Abcam) antibodies. […] The Pactin was used as internal positive control (Sigma).
After expansion, ASC- or EGM-2-derived cells were also cultured in chamber slides and after becoming confluent, cells were induced to differentiate into brown/beige adipocytes. After 7 days, the cells were stained with anti-UCP1 antibody (Alpha Diagnostic, San-Antonio, Tex.), and then with Alexa488-labeled goat anti-mouse secondary antibody (Invitrogen). The staining was read by using confocal microscope (Zeiss 510, Zeiss, Oberkochen, Germany).

[3] = system: EGM2-derived Bone Marrow-MSCs; assay: BMP7-induced differentiation of BM-MSCs (QRT-PCR)
[4] = system: MSCs cultured in standard conditions; assay: BMP7-induced differentiation of BM-MSCs cultured in standard conditions; settings: BMP7 treatment

| Molecule | osteoblastic marker expression after BMP treatment (standard ASCs) | adipocyte generation after BMP treatment [1] | UCP1 induction at protein level [2] | expression of adipogenic and brown/beige genes (UCP1, CIDEA) [3] | differentiation outcome of MSCs [4] | UCP1 induction, BMP7 compared with BMP4 [2] |
| --- | --- | --- | --- | --- | --- | --- |
| Bone Morphogenetic Protein 4 (protein, UniProt P12644 293-408, looked up, recombinant human Bone Morphogenetic Protein 4 (Miltenyi), adipogenic/browning agent) Bone morphogenetic protein 4: SPKHHSQRARKKNKNCRRHSLYVDFSDVGWNDWIVAPPGYQAFYCHGDCPFPLADHLNSTNHAIVQTLVNSVNSSIPKACCVPTELSAISMLYLDEYDKVVLKNYQEMVVEGCGCR | expressed high levels of osteoblastic markers | generated clearly defined adipocytes | strongly induced |  |  |  |
| BMP7: recombinant human BMP7 (RnD system's), pro-beige/brown adipocyte factor (protein, UniProt P18075 293-431, looked up) Bone morphogenetic protein 7: STGSKQRSQNRSKTPKNQEALRMANVAENSSSDQRQACKKHELYVSFRDLGWQDWIIAPEGYAAYYCEGECAFPLNSYMNATNHAIVQTLVHFINPETVPKPCCAPTQLNAISVLYFDDSSNVILKKYRNMVVRACGCH | expressed high levels of osteoblastic markers | generated clearly defined adipocytes | strongly induced | triggered expressions of adipogenic and UCP1, CIDEA genes | differentiate into osteoblastic cells solely | more potent and reliable |
